Results as given in patent EP4736886A1, “METHOD FOR PREPARING ANTIBODY-SMALL MOLECULE DRUG CONJUGATE AND USE THEREOF” (priority 2023, dated 2025).

Legend:
[1] = Size-exclusion chromatography analysis of aggregate formation; type: physicochemical; details: DXd conjugates, FIG. 7 and FIG. 9
Procedure: Size-exclusion chromatography analysis was performed. […]
Based on Antibody 3 and Antibody 4, amino acid residues with different properties were inserted between the cysteine residues at positions 4 and 5. Specifically: nonpolar amino acids, exemplified by the insertion of two alanine residues (A); polar uncharged amino acids, exemplified by the insertion of two serine residues (S); basic amino acids, exemplified by the insertion of two lysine residues (K); and acidic amino acids, exemplified by the insertion of two glutamic acid residues (E) or two aspartic acid residues (D), as shown in Table 5. The different mutants were expressed and purified. […]
The different mutants listed in Table 6 were expressed and purified. […] The thermal stability of these ten heavy-chain antibodies was further evaluated using dynamic light scattering (DLS). A DLS (Wyatt) instrument was used to monitor light scattering of the antibodies during heating from 25 °C to 85 °C, thereby determining the aggregation temperature (Tagg) of the antibodies.
VHH1 was separately linked to the engineered human IgG2 Fc or the engineered human IgG4 Fc shown in Table 7 to construct heavy-chain antibodies. After expression and purification, Mutant 37, Mutant 38, Mutant 39, and Mutant 40 were obtained.

[2] = Hydrophobic interaction chromatography and LC-MS analysis of drug loading; type: physicochemical; details: after TCEP reduction and conjugation with maleimide-GGFG-DXd
Procedure: Antibody 1 and Antibody 2 were separately incubated with TCEP (Sigma) to reduce and open the disulfide bonds between the two heavy chains, followed by the addition of maleimide-GGFG-DXd (MedChemExpress) for conjugation. The conjugates were then purified using a desalting column to remove excess small-molecule drug.

OVCAR-3 cells = assay: Cell killing assay, cell viability by CellTiter-Glo; type: cell-based, human; details: 5 days at 37°C; compared to Antibody 1-DXd, FIG. 11
Procedure: OVCAR-3 cells were seeded into a 96-well plate at a density of 5,000 cells per well and cultured overnight at 37°C. Antibody 1-DXd, Mutant 22-DXd, Mutant 23-DXd, Mutant 37-DXd, Mutant 38-DXd, Mutant 39-DXd, and Mutant 40-DXd were serially diluted and added to the 96-well plate containing OVCAR-3 cells, followed by incubation at 37°C for 5 days. Cell viability was measured using CellTiter-Glo (Promega) to evaluate the killing effects of the antibody-drug conjugates.

B1: Mutant 37-DXd (conjugate)
heavy: QVQLVESGGGLVQPGGSLRLSCAASGITFPVNAYGWYRQAPGKQRDLVAIISAGGTTNYADSVKGRFTISRDNSKNTLYLQMNSLRAEDTAVYYCYLQRRIGMLRDYWGQGTQVTVSSERKCDDCVECPPCPERKCCVECPPCPAPPVAGPSVFLFPPKPKDTLMISRTPEVTCVVVDVSHEDPEVQFNWYVDGVEVHNAKTKPREEQFNSTFRVVSVLTVVHQDWLNGKEYKCKVSNKGLPAPIEKTISKTKGQPREPQVYTLPPSREEMTKNQVSLTCLVKGFYPSDIAVEWESNGQPENNYKTTPPMLDSDGSFFLYSKLTVDKSRWQQGNVFSCSVMHEALHNHYTQKSLSLSPGK
- size-exclusion chromatography peak profile after conjugation [1]: normal
- drug-to-antibody ratio (DAR) value [2]: 8
- killing effect on OVCAR-3 cells (OVCAR-3 cells): significantly enhanced killing effect

B2: Mutant 38-DXd (conjugate)
heavy: QVQLVESGGGLVQPGGSLRLSCAASGITFPVNAYGWYRQAPGKQRDLVAIISAGGTTNYADSVKGRFTISRDNSKNTLYLQMNSLRAEDTAVYYCYLQRRIGMLRDYWGQGTQVTVSSERKCEECVECPPCPERKCCVECPPCPAPPVAGPSVFLFPPKPKDTLMISRTPEVTCVVVDVSHEDPEVQFNWYVDGVEVHNAKTKPREEQFNSTFRVVSVLTVVHQDWLNGKEYKCKVSNKGLPAPIEKTISKTKGQPREPQVYTLPPSREEMTKNQVSLTCLVKGFYPSDIAVEWESNGQPENNYKTTPPMLDSDGSFFLYSKLTVDKSRWQQGNVFSCSVMHEALHNHYTQKSLSLSPGK
- size-exclusion chromatography peak profile after conjugation [1]: normal
- drug-to-antibody ratio (DAR) value [2]: 8
- killing effect on OVCAR-3 cells (OVCAR-3 cells): significantly enhanced killing effect
